The text below walks through data of CN114397452A (dated 2022).

Test [1] deals with SARS-CoV RBD蛋白 (SARS-CoV, UniProt P59594 306-527).
Test [2] concerns the target 冠状病毒RaTG13 RBD蛋白 (coronavirus RaTG13).

B1: IMCAS-364 scFv (scFv, V domains shown)
VH: QVQLQESGGGVVQPGRSLRLSCAASGFTFSRYGMHWVRQAPGKGLEWVAVIWYDGSNKYYADSVKGRFTISRDNSKNTLYLQMNSLRADDTAVYYCAKQEGTYCSGGSCYSGLDYWGQGTLVTVSS
VL: not shown
As for B1, the Kd in test [1] was 8.17 nM.

B2: IMCAS-72 scFv (scFv, V domains shown)
VH: QVQLVESGGGLVQPGGSLRLSCAASGFTFSSYGMHWVRQAPGKGLEWVAVISYDGSDKYYADSVKGRFTISRDNSKNTLYLQMNSLRAEDTAVYYCARDRDRFGDQGGWFDPWGQGTLVTVSS
VL: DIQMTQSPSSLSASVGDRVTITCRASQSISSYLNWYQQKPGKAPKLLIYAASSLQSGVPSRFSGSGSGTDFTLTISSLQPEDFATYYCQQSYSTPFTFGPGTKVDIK
Molecule B2 showed a dissociation constant Kd in test [2] of 6.21 nM.

Broadly, the Kd is the equilibrium constant for the complex coming apart. The low end stands for higher affinity, the high end for lower affinity.
